From patent publication US20250152627A1, “COMPOSITIONS AND METHODS FOR ENHANCING IMMUNE CELL FUNCTION USING MODIFIED CELLS WITH GLYCOCALYX EDITING ENZYMES” (Cornell University, priority 2021, published 2025)

Tests used:
NK-92 cell surface = assay: Flow cytometry of StcE surface level on NK-92 cells (anti His-tag); type: cell-based; conditions: after washing with buffer; no additional molecular tether
Procedure: Cells were plated, grown for 24 hours, and then induced with various concentrations of doxycycline for 24 hours. Adherent cells were detached by incubating with Accutase (Innovative Cell Technologies) at 37° C. for 10 minutes. GFP nanobody conjugated Alexa Fluor 647, Neutravidin conjugated DyLight 650, CF640R PNA, Alexa Fluor 647 HPA, and biotin MAL-II were diluted 1:200 in 0.5% BSA PBS and incubated with cells at 4° C. for 30 minutes for each stain. For analysis of Muc1 cell surface expression level, anti-Human Muc Clone HMPV was diluted 1:200 in 0.5% BSA PBS and incubated with cells at 4° C. (for 1 hour. Secondary labelling was with Alexa Fluor 647 conjugated goat anti-mouse, diluted 1:1000 in 0.5% BSA PBS and incubated with cells at 4° C. for 1 hour. For analysis of StcE mucinase binding to NK-92 cells, NK cells were incubated with StcE at 37° C. for 1 hour. Cells were thoroughly washed to remove StcE and coculture with target cells. Anti-6× His-tag antibody was diluted 1:100 in 0.5% BSA PBS and incubated with cells at 4° C. for 1 hour. Secondary labelling was with Alexa Fluor 647 goat anti-rabbit IgG, diluted 1:500 in 0.5% BSA PBS or FluoTag-X2 anti-AFLA conjugated with Alexa Fluor 647 was diluted 1:200 in 0.5% BSA PBS and incubated with cells at 4° C. for 1 hour. […]

[1] = system: Muc1-GFP expressing 1E7 cells; assay: Removal of cell-surface mucin from 1E7 cells (confocal imaging, GFP nanobody); type: cell-based; conditions: 100 nM enzyme
Procedure: FIG. 11. StcE mucinase effectively remove cell-surface mucin on 1E7 clone and NK cell. (A) Representative confocal images of Muc1-GFP expressing 1E7 cells with and without treatment with 100 nM StcE, StcE ΔX409, or StcE-EE Zip; Alexa Fluor 647 conjugated to GFP nanobody is used to probe cell-surface Muc1-GFP constructs. (Scale bar, 10 μm). (B) Quantification of mean fluorescence intensity of Muc1-GFP and cell-surface Muc1-GFP probed with GFP nanobody in 1E7 cells treated with the indicated concentration of StcE mucinase; results are shown for induction of Muc1-GFP at 100 ng/ml and 1000 ng/ml doxycycline. (C) Cytotoxicity of NK-92 cells against 1E7 cells treated with control buffer, 100 nM StcE mucinase, or 5,000 U/mL PNGase F for 1 hour; Muc1-GFP induction is at the indicated doxycycline concentration (1,100, and 1,000 ng/ml); NK cell to target cell ratio is 5:1. (D) Flow cytometry analysis of mucin levels on NK-92 cells following incubation with control buffer or 100 nM recombinant StcE or StcE ΔX409; StcE surface level after incubation probed with anti His-tag antibody and cell-surface mucin level probed with catalytically dead StcE E447D conjugated to Cy5. Statistical significance is given by ns—not significant, *P≤0.05, **P≤0.01, ***P≤0.001, ****P≤0.0001. Results are a representative dataset from 3 independent replicates. […]

B1: StcE-ΔX409: StcE with a deleted C-terminal X409 lectin domain; NK cells treated with it: StcE-ΔX409 NK (protein)
chain: ADNNSAIYFNTSQPINDLQGSLAAEVKFAQSQILPAHPKEGDSQPHLTSLRKSLLLVRPVKADDKTPVQVEARDDNNKILGTLTLYPPSSLPDTIYHLDGVPEGGIDFTPHNGTKKIINTVAEVNKLSDASGSSIHSHLTNNALVEIHTANGRWVRDIYLPQGPDLEGKMVRFVSSAGYSSTVFYGDRKVTLSVGNTLLFKYVNGQWFRSGELENNRITYAQHIWSAELPAHWIVPGLNLVIKQGNLSGRLNDIKIGAPGELLLHTIDIGMLTTPRDRFDFAKDKEAHREYFQTIPVSRMIVNNYAPLHLKEVMLPTGELLTDMDPGNGGWHSGTMRQRIGKELVSHGIDNANYGLNSTAGLGENSHPYVVAQLAAHNSRGNYANGIQVHGGSGGGGIVTLDSTLGNEFSHEVGHNYGLGHYVDGFKGSVHRSAENNNSTWGWDGDKKRFIPNFYPSQTNEKSCLNNQCQEPFDGHKFGFDAMAGGSPFSAANRFTMYTPNSSAIIQRFFENKAVFDSRSSTGFSKWNADTQEMEPYEHTIDRAEQITASVNELSESKMAELMAEYAVVKVHMWNGNWTRNIYIPTASADNRGSILTINHEAGYNSYLFINGDEKVVSQGYKKSFVSDGQFWKERDVVDTREARKPEQFGVPVTTLVGYYDPEGTLSSYIYPAMYGAYGFTYSDDSQNLSDNDCQLQVDTKEGQLRFRLANHRANNTVMNKFHINVPTESQPTQATLVCNNKILDTKSLTPAPEGLTYTVN
- binding and retention on the NK-92 cell surface (NK-92 cell surface): not retained
- removal / cleavage of cell-surface mucin [1]: could actively digest Muc
